Data: the RNAGym collection of RNA variant scans (doi:10.1073/pnas.2313332121)
Variants at the floor of the assay were thinned out.

B1: TPR 5TU (parent)
chain: GGAUCUUCUCGAUCUAACAAAAAAGACAAAUCUGCCACAAAGCUUGAGAGCAUCUUCGGAUGCAGAGGCGGCAGCCUUCGGUGGCGCGAUAGCGCCAACGUUCUCAACUAUGACACGCAAAACGCGUGCUCCGUUGAAUGGAGUUUAUCAUG

Variants of: B1
Experiment: polymerase ribozyme fitness, log enrichment relative to wild type (log ratio); higher = more active; in vitro selection for triplet polymerase activity
Procedure, shortened: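 To select mutant libraries of each subunit of a heterodimeric triplet polymerase ribozyme, built by PCR and transcribed, each was annealed with a biotinylated primer, partner subunit and triplets, then incubated frozen at −7 °C. Extended constructs were gel-excised, captured on streptavidin beads and amplified by RT-PCR, in one round carried out in triplicate. Illumina sequencing of input and output libraries kept genotypes with ≥10 input reads and ≥1 read per output. Fitness is the base-2 logarithm of genotype enrichment relative to wild-type enrichment, from inverse-variance-weighted replicate averages.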

Variant | polymerase ribozyme fitness (log ratio)
A19G A26G | -3.57
A20G C54A G68A C87U | ≤ -4.2
A20U C32U U77G A142U | ≤ -4.2
A20G G83U A89G C99U G141A U146A | ≤ -4.2
A20U C35G A49C G94A G100C A119U A120G U134C | ≤ -4.2
A20G C87U | -1.06
A20G C38U G88C C96A | ≤ -4.2
A19U A23U U61A C99A U101G G136C A137C U145A | ≤ -4.2
A19U U33G A40C C87U C93U C103A | ≤ -4.2
A21C A24C A52C C79A C93U A150U G152C | ≤ -4.2
A19G U102G | -3.38
A20U A41U G59A G67A G86C | ≤ -4.2
A20U A30U A39U G62A G68A G140U | ≤ -4.2
A19U C93U U148A | -3.95
A19U G92U U102A U146C | -2.35
A20C C38U C95U A122C U134C | -1.35
A19G C79G | ≤ -4.2
A19U U31A A41G C87G G124U | -4.17
A19G U55G C57G A97G A106C | -2.96
A19U A26U | -2.56
A20G A24G A39G A40C C76A G136U G141A | ≤ -4.2
A19U G59A G88U A89G G94U A113G | ≤ -4.2
A20U C54U C95U C96A | -2.31
A20U G84U C108U | ≤ -4.2

Variant | polymerase ribozyme fitness (log ratio)
A20U A73G U104G A115G | ≤ -4.2
A20U A52C C93U | -3.12
A20G A24U C35U G42C C79A C85G G88U A147G G152A | ≤ -4.2
A21C C27U G59C C69A | -3.75
A19U U55C C57A A66C C85G U109G | ≤ -4.2
A20U A22U G67C C79U C99G C118U | ≤ -4.2
A20U A23U G42A G67A C93U | ≤ -4.2
A19U U53G U55A C85G | ≤ -4.2
A21C C125A | 0.331
A19G C38U C76G C93A C103A G143U | ≤ -4.2
A20U A26U A40C U44A C105G C114U C116A | ≤ -4.2
A19G C27U C35A A73G U77A G80C | ≤ -4.2
A19U G62A C96G | -1.02
A20C A24U C57U | -0.111
A20C G80A U82A C93U A98C | -2.56
A20G G67U | -2.82
A20U A24U G83C C93G G143A | ≤ -4.2
A19G A49G A52C U55A | -4.18
A19U U56A G86A A107G | ≤ -4.2
A20U A47G A89U C105U | -2.65
A20U G133C | -3.79
A21C A47C A60G C93A | -1.98
A19U A24C G86A G140U | ≤ -4.2
A20G A24U C87U A107G | ≤ -4.2

Variant | polymerase ribozyme fitness (log ratio)
A19U G34A C38U G59C C95A C116A | -4.19
A20U C43A C69U A138G | ≤ -4.2
A20U A29G C43U C75U U77G G94C U109G A113U | ≤ -4.2
A19G G92A G124U | -3.61
A19U C57U G81C C93G C125A | -3.42
A19G A26U G84A A147G | -3.45
A20U A30C G70A | ≤ -4.2
A19U A21U A23U G67C G88A U102C A150G | ≤ -4.2
A21C A24G A52G G67A C85A G141C | ≤ -4.2
A21C A24G A28G A29U G71C G83A G124U | ≤ -4.2
A20G A91U G124U | ≤ -4.2
A19G A49G U56A A66G G67C C108U G136A C149A G152U | ≤ -4.2
A19G A20G C43U A47C U55G C87U C105U U145G | ≤ -4.2
A20C A28U C35A G67U U102A | ≤ -4.2
A21C A40C U45A A73G G83U C96A | ≤ -4.2
A21C A22U U53A C85A G124A | -2.42
A19U A37C U82G A89U C95G A97C A107U U127A | ≤ -4.2
A19G G25U G50A C93U A120G | ≤ -4.2
A20C G50C C54U G58C G62A C103G C125U A142C | ≤ -4.2
A21C C27A C43U A89U G92U G126A U145A U151C | ≤ -4.2
A20U A52G U53A U55A C69A A110G U146G | ≤ -4.2
A21C C87A | -4.15
A21C C87A G141C | ≤ -4.2
A19U A30U U90G A91C C118G | ≤ -4.2

Variant | polymerase ribozyme fitness (log ratio)
A19U A23U A26U C54U A60G A120U U151G | ≤ -4.2
A20U C79U | -3.19
A20G A23C U53A G92A C93A C95U G141A | ≤ -4.2
A20G A41C C54G G83U C87G A98C C116G C132U | ≤ -4.2
A19U U53A G81U C96A | -2.73
A19U A26C A40U C96A A121C | -2.54
A20C U53C G59A G136C | -3.81
A19U G83C A89C A97G | -2.32
A21C A23C G80A U82G G86U A137G | ≤ -4.2
A19G A23G A110U | ≤ -4.2
A19U U31C C132G | -2.74
A20U C38U C85A G86U | ≤ -4.2
A19G A52U G83A A98G C118G G124A U134C G140U | ≤ -4.2
A20G A26C A49C G68C C72G G81U C85A C93G G126C | ≤ -4.2
A19U U104A | -0.0348
A19G U44G C63U C76G C103A C125A | ≤ -4.2
A20U C57G G88U A89U | ≤ -4.2
A20G G83U | -0.993
A19G C75U C93A | -3.68
A20G G81C C93U C103A G152A | -3.74
A20C C36U G86A A89G C93A G94U G140A G143C | ≤ -4.2
A21C A47C G58C | 0.582
A20C C96U A142C | -1.62
A20U A26U G83C | ≤ -4.2

Variant | polymerase ribozyme fitness (log ratio)
A20U A40C G59A U77C U101C C108A U146G | ≤ -4.2
A20G A24G U53A A91G A97U U109C U130A G141A A142C | ≤ -4.2
A20G U53G G74A C93A | ≤ -4.2
A19G C57U G92A U104G C116U | -4.18
A20C U44C U55G C69A | ≤ -4.2
A21C C57A A91G C99U G140C | ≤ -4.2
A20G C36U C85G | -4.17
A21C C27G G83C A113U G140A | ≤ -4.2
A20U C85A G94C A121C | -0.745
A21C G59C A98G C125G G136A U146G | -1.19
A20U A91U A115U | -4.17
A21C C43A U45G G48C A73G G86U C96G A97C G140U | ≤ -4.2
A20C C51G C95G C149U | ≤ -4.2
A20U G84A G124A A147G | -2.53
A19U C69A A98U G140C | ≤ -4.2
A20G U55A G59U C76U C96A | -1.18
A20U C35U U144C | -2.73
A19U C35U G86A A119G G141A | -3.69
A20G U82A C96G | 0.0125
A20C G81U G94U A120U U151C | -4.13
A19U U56A | -0.835
A19U G92U A150C | -2.67
A19U A30U C72G C96U A106G A122C G140U | ≤ -4.2
A21C G34U U55A C132G U135A | ≤ -4.2

Variant | polymerase ribozyme fitness (log ratio)
A20C C27G C96G A115U | ≤ -4.2
A19G A29U A49G C118U | ≤ -4.2
A20G C85A U104C C105G | ≤ -4.2
A21C A39U C95G A113U C149U A150G | ≤ -4.2
A20C G50U C95U A106U A137C | ≤ -4.2
A19U A91U | ≤ -4.2
A19U A91G | -2.85
A19U A41C G50C C96U C99U U101G | ≤ -4.2
A19U A52C U55A A60C C76U G83A C85U C129G A150G | ≤ -4.2
A20C A21U A30G A40G G94U A121G A137U | ≤ -4.2
A19U A22G A52C C114A A142G | ≤ -4.2
A19U G58A G62A G67A A89G C108A C116A G152U | ≤ -4.2
A20G U144A | -0.576
A20G C43U U55A C85U C96G A98U A107G | ≤ -4.2
A19U A40C G94A A107U | ≤ -4.2
A20U A49G | -1.2
A20U C93U | -1.76
A20U C27U G46C C95U | -3.76
A21C G83U C116G | -0.153
A20C C54A G84U C116U | -3.08
A20G G140U | -3.41
A19U A73G | 0.504
A20C U44A A49C C96G C103A G141C | ≤ -4.2
A19G A26U U45A A52U U61A G70C C85G A115U G141U | ≤ -4.2

Variant | polymerase ribozyme fitness (log ratio)
A20U A21U A41C A47U G58U U104A | -2.77
A20U C69A | -2.18
A20U A41C | -2.09
A20U A41U | -2.17
A19G U53A C57U C96A G100C U134C G143C | ≤ -4.2
A20C C57G C85A C118U G143C | -3.96
A20U G58A G81A | -0.836
A21C C54A | 0.0369
A21C C54U | -0.0517
A20U G84U A120U | -2.73
A20U A29G G42A C57A A91G G94C | ≤ -4.2
A20U G62C C63U C95U A122G G143A | -4.12
A19U A21C C96U C129A | -4.13
A19G C35U C51U C96U | -1.35
A20C A40C C103U U145C | -0.185
A19G U53A A91G C95U U104A A121C G126C U135G | ≤ -4.2
A20U A24U G58C C96G A119G | ≤ -4.2
A20U C85U | -1.3
A19G G141C | -0.542
A19G G141U | 1.06
A19U A22G G67U C93A G126A C131A | ≤ -4.2
A19U G62A A73U A110G A121U | ≤ -4.2
A19G G81C G92U U134G | -2.69
